According to paper PMC7601328:

Target: RNA polymerase holoenzyme (beta, beta', alpha, omega, sigma) (Escherichia coli) (UniProt P0A8V2+P0A8T7+P0A7Z4+P0A800+P00579)
Assay: EMSA
Settings: 40 mM Hepes-KOH pH 8, 50 mM KCl, 10 mM Mg acetate, 0.5 mM DTT, 0.005% NP40, 50 uM ATP, 30 C; ~0.3 pmol DNA and 7 pmol RNAP in 200 uL; time course, heparin …

## GTGCTGCGAAATCATCGGTGTAAATAGGGCTATATGCCGCGTCTTTTCTGGCTAATTTTATGAAAAGATATTTATTGGCGGCACAAAATAAAGAACAATTTTGAATTCCTTACATTCCTGGCTATTGCACAACTGAATTTAAGGCTCTATTATTACCTCAACAAACCACCCCAATATAAGTTTGAGATTACTACAATGAGCGAAGCACTTAAAATTCTGAA (double strand) [hns promoter fragment, 221 bp (-159 to +62)]
  binding: binds
